How the values were obtained:
[1] = test system: CC(=O)Oc1ccc([N+](=O)[O-])cc1; experiment: purified protein; conditions: free enzyme; emulsified substrate
[2] = test system: CCCCCCCCCCCCCCCC(=O)Oc1ccc([N+](=O)[O-])cc1; experiment: purified protein; conditions: free enzyme; emulsified substrate
[3] = test system: CC(=O)Oc1ccc([N+](=O)[O-])cc1; experiment: p-nitrophenol release, Lineweaver-Burk; format: biochemical, Rhizopus microsporus; conditions: RCLCYS, engineered disulfide C95-C214; free enzyme; emulsified substrate
Excerpt: (§1) p-nitrophenol release, Lineweaver-Burk on RCL (R. chinensis lipase)

[4] = test system: CCCCCCCCCCCCCCCC(=O)Oc1ccc([N+](=O)[O-])cc1; experiment: p-nitrophenol release, Lineweaver-Burk; format: biochemical, Rhizopus microsporus; conditions: RCLCYS, engineered disulfide C95-C214; free enzyme; emulsified substrate
Excerpt: as §1

Substance	Km [1] [µM]	kcat [1] [s⁻¹]	Km [2] [µM]	kcat [2] [s⁻¹]	Km [3] [µM]	kcat [3] [s⁻¹]	Km [4] [µM]	kcat [4] [s⁻¹]
RCL (R. chinensis lipase) (Rhizopus microsporus var. chinensis)	295 ± 6	17.7 ± 0.2	304 ± 7	18.9 ± 0.4	–	–	–	–
RCL (R. chinensis lipase) (Rhizopus microsporus var. chinensis; F215C/F334C)	–	–	–	–	298 ± 8	17.3 ± 0.2	450 ± 6	18.4 ± 0.2

Source: article PMC3462767, “Engineering a Disulfide Bond in the Lid Hinge Region of Rhizopus chinensis Lipase: Increased Thermostability and Altered Acyl Chain Length Specificity” (PLoS ONE, 2012)
